Source: paper PMC4506499

Assays:
[1] = target: T1, Human Upf1-CH-HD (115-914 amino acids) (human) (UniProt Q92900)
T1 sequence: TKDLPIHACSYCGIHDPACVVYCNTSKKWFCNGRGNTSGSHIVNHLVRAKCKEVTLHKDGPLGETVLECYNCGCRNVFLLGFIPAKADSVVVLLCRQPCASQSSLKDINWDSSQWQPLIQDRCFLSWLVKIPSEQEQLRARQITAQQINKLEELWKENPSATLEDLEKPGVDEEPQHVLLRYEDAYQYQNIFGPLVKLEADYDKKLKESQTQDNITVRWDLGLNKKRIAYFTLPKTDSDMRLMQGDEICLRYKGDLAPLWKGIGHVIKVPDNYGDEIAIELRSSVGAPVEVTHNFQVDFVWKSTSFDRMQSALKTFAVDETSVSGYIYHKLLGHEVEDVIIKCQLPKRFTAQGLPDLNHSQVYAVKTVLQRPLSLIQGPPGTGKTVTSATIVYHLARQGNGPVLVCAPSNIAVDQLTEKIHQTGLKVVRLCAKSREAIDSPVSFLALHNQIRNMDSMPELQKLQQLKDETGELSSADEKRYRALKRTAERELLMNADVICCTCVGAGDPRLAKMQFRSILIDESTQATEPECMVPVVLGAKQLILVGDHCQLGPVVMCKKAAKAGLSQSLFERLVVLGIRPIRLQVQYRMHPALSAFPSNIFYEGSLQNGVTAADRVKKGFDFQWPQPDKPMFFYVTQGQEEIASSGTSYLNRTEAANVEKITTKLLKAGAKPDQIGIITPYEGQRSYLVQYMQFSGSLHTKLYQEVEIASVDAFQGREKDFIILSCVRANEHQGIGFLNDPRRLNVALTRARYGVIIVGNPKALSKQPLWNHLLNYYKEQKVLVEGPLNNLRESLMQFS

[2] = target: T1, Human Upf1-CH-HD (115-914 amino acids) (human); remark: listed apart in the source
[3] = target: T1, Human Upf1-CH-HD (115-914 amino acids) (human); remark: listed apart in the source

“Human Upf2 (761-1227 amino acids) (from UniProt Q9HAU5 761-1227) (domain or fragment)” was tested, and the activity ratio Ac=u/(u+b) (unwinding events over unwinding plus binding events), magnetic tweezers on a DNA hairpin; Upf1-CH-HD alone Ac=49% [1] was 81%, the processivity factor fp (enzymes reaching the hairpin apex over total bursts), magnetic tweezers on the 1.2 kb DNA hairpin (fraction (24 of 25 bursts)) [2] was 0.96 and the share of Upf1-CH-HD/Upf2 binding events with a normal rising edge but a falling edge interrupted by blocking (magnetic tweezers, DNA hairpin) [3] was 76%.
